Laboratory results as given in patent US20240366776A1 (Hoffmann-La Roche, published 2024).

T1: biotinylated IL-2 receptor beta gamma heterodimer Fc (IL-2RBG; Acro ILG-H5254) (UniProt P14784 27-239; P31785 23-262, biotinylated)
T1 construct: bought heterodimer
T1 sequence (looked up) 1: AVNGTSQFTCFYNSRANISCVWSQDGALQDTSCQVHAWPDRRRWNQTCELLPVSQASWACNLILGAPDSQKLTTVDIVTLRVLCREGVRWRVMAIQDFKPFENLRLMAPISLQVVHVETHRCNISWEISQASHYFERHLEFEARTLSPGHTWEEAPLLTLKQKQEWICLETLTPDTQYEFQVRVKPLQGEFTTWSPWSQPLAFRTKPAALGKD
T1 sequence (looked up) 2: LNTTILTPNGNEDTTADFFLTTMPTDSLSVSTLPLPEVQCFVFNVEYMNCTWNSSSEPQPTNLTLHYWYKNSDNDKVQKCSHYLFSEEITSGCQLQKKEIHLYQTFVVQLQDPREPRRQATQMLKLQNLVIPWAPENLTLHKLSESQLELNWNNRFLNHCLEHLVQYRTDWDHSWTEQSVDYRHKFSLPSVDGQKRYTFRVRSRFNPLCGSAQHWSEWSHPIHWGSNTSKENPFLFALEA


Assays:
[1] = target: T1, biotinylated IL-2 receptor beta gamma …; assay: ELISA, captured complex, biotin-IL-2RBG titrated
IL2 (R&D, 202-IL) = IL2 (R&D, 202-IL) (UniProt P60568 21-153); assay: ELISA, scFv on anti-V5
Source text: The scFv DNA sequence for each clone was synthesized as a GBLOCK® (Integrated DNA Technologies, Inc.) with a T7 promoter, a translation initiation site, the coding sequence for the scFv sequence with cMyc and V5 tags, and a T7 terminator sequence. Proteins from each of the GBLOCK® fragments were expressed using a cell-free transcription/translation system (Cosmo Bio USA, Inc., PUREFREX® 2.1, Product #GFK-PF213 with DS Supplement, Prod. #GFK-PF005). […] In these experiments, wells of a 384-well plate were coated with an anti-V5 antibody (Sv5-Pk1, BioRad) at lug/ml overnight at 4 degrees. After washing, wells were blocked with SUPERBLOCK™ (ThermoFisher, 37515) followed by addition of saturating levels of scFvs in SUPERBLOCK™. After washing, antigens were added and plates incubated for one hour. To detect PD1 binding, a biotinylated recombinant PD1 was used (PD1-HisAvi, Acro Biosystems, PD1-H82E4). […] Biotinylated antigens were detected using streptavidin HRP using standard methods. Varying amounts of labelled test antigen were added to show binding and to estimate relative affinities of the different scFvs.

Binder | binding result [1] | binding result (IL2 (R&D, 202-IL))
AF004695 (other, also called AF4695) heavy 1: QVQLVESGGGVVQPGRSLRLDCKASGITFSNSGMHWVRQAPGKGLEWVAVIWYDGSKRYYADSVKGRFTISRDNSKNTLFLQMNSLRAEDTAVYYCATNDDYWGQGTLVTVSSAKTTAPSVYPLAPVCGDTTGSSVTLGCLVKGYFPEPVTLTWNSGSLSSGVHTFPAVLQSDLYTLSSSVTVTSSTWPSQSITCNVAHPASSTKVDKKIEPRGPTIKPCPPCKCPAPNAAGGPSVFIFPPKIKDVLMISLSPIVTCVVVDVSEDDPDVQISWFVNNVEVHTAQTQTHREDYNSTLRVVSALPIQHQDWMSGKEFKCKVNNKDLGAPIERTISKPKGSVRAPQVYVLPPPEEEMTKKQVTLTCMVTDFMPEDIYVEWTNNGKTELNYKNTEPVLDSDGSYFMYSDLRVEKKNWVERNSYSCSVVHEGLHNHHTTESFSRTPGGGGGSGGGGSGGGGSAPTSSSTKKTQLQLEHLLLDLQMILNGINNYKNPKLTDMLTFEFYMPKKATELKHLQCLERELKPLEEVLNLAQSKNFHLRPRDLISNINVIVLELKGSETTFMCEYADETATIVEFLNRWITFCQSIISTLT heavy 2: QVQLVESGGGVVQPGRSLRLDCKASGITFSNSGMHWVRQAPGKGLEWVAVIWYDGSKRYYADSVKGRFTISRDNSKNTLFLQMNSLRAEDTAVYYCATNDDYWGQGTLVTVSSAKTTAPSVYPLAPVCGDTTGSSVTLGCLVKGYFPEPVTLTWNSGSLSSGVHTFPAVLQSDLYTLSSSVTVTSSTWPSQSITCNVAHPASSTKVDKKIEPRGPTIKPCPPCKCPAPNAAGGPSVFIFPPKIKDVLMISLSPIVTCVVVDVSEDDPDVQISWFVNNVEVHTAQTQTHREDYNSTLRVVSALPIQHQDWMSGKEFKCKVNNKDLGAPIERTISKPKGSVRAPQVYVLPPPEKEMTKKQVSLTCLVKDFMPEDIYVEWTNNGKTELNYKNTEPVLKSDGSYFMYSKLTVEKKNWVERNSYSCSVVHEGLHNHHTTKSFSRTPGGGGGSGGGGSGGGGSGGGGSQVQLVQSGAEVKKPGASVKVSCKASGDTFTRYYVHWVRQAPGQGLEWMGIINPSGGYASYAQKFQGRVTMTRDTSTSTVYMELSSLRSEDTAVYYCAAGLFIWGQGTLVTVSSASGGGGSGGGGSGGGGSHASDIQMTQSPSSLSASVGDRVTITCRASQSIGRWLAWYQQKPGKAPKLLIYSASNLETGVPSRFSGSGSGTDFTLTISSLQPEDFATYYCQQYNRFPVTFGPGTKVDIK light: EIVLTQSPATLSLSPGERATLSCRASQSVSSYLAWYQQKPGQAPRLLIYDASNRATGIPARFSGSGSGTDFTLTISSLEPEDFAVYYCQQSSNWPRTFGQGTKVEIKRADAAPTVSIFPPSSEQLTSGGASVVCFLNNFYPKDINVKWKIDGSERQNGVLNSWTDQDSKDSTYSMSSTLTLTKDEYERHNSYTCEATHKTSTSPIVKSFNRNEC | binds | –
AF004696 (other, also called AF4696) heavy 1: QVQLVESGGGVVQPGRSLRLDCKASGITFSNSGMHWVRQAPGKGLEWVAVIWYDGSKRYYADSVKGRFTISRDNSKNTLFLQMNSLRAEDTAVYYCATNDDYWGQGTLVTVSSAKTTAPSVYPLAPVCGDTTGSSVTLGCLVKGYFPEPVTLTWNSGSLSSGVHTFPAVLQSDLYTLSSSVTVTSSTWPSQSITCNVAHPASSTKVDKKIEPRGPTIKPCPPCKCPAPNAAGGPSVFIFPPKIKDVLMISLSPIVTCVVVDVSEDDPDVQISWFVNNVEVHTAQTQTHREDYNSTLRVVSALPIQHQDWMSGKEFKCKVNNKDLGAPIERTISKPKGSVRAPQVYVLPPPEEEMTKKQVTLTCMVTDFMPEDIYVEWTNNGKTELNYKNTEPVLDSDGSYFMYSDLRVEKKNWVERNSYSCSVVHEGLHNHHTTESFSRTPGGGGGSGGGGSGGGGSAPTSSSTKKTQLQLEHLLLDLQMILNGINNYKNPKLTDMLTFEFYMPKKATELKHLQCLERELKPLEEVLNLAQSKNFHLRPRDLISNINVIVLELKGSETTFMCEYADETATIVEFLNRWITFCQSIISTLT heavy 2: QVQLVESGGGVVQPGRSLRLDCKASGITFSNSGMHWVRQAPGKGLEWVAVIWYDGSKRYYADSVKGRFTISRDNSKNTLFLQMNSLRAEDTAVYYCATNDDYWGQGTLVTVSSAKTTAPSVYPLAPVCGDTTGSSVTLGCLVKGYFPEPVTLTWNSGSLSSGVHTFPAVLQSDLYTLSSSVTVTSSTWPSQSITCNVAHPASSTKVDKKIEPRGPTIKPCPPCKCPAPNAAGGPSVFIFPPKIKDVLMISLSPIVTCVVVDVSEDDPDVQISWFVNNVEVHTAQTQTHREDYNSTLRVVSALPIQHQDWMSGKEFKCKVNNKDLGAPIERTISKPKGSVRAPQVYVLPPPEKEMTKKQVSLTCLVKDFMPEDIYVEWTNNGKTELNYKNTEPVLKSDGSYFMYSKLTVEKKNWVERNSYSCSVVHEGLHNHHTTKSFSRTPGGGGGSGGGGSGGGGSGGGGSQVQLVQSGAEVKKPGASVKVSCKASGYTFTRYYMHWVRQAPGQGLEWMGIINPRAGYTSYALKFQGRVTMTRDTSTSTVYMELSSLRSEDTAVYYCTSGWDVWGQGTLVTVSSASGGGGSGGGGSGGGGSHASDIQMTQSPSSLSASVGDRVTITCRASQSISTWLAWYQQKPGKAPKLLIYAASSLDSGVPSRFSGSGSGTDFTLTISSLQPEDFATYYCQQSYSFPVTFGQGTKVEIK light: EIVLTQSPATLSLSPGERATLSCRASQSVSSYLAWYQQKPGQAPRLLIYDASNRATGIPARFSGSGSGTDFTLTISSLEPEDFAVYYCQQSSNWPRTFGQGTKVEIKRADAAPTVSIFPPSSEQLTSGGASVVCFLNNFYPKDINVKWKIDGSERQNGVLNSWTDQDSKDSTYSMSSTLTLTKDEYERHNSYTCEATHKTSTSPIVKSFNRNEC | binds | –

The remaining lines, values ahead:

binding result [1] | binding result (IL2 (R&D, 202-IL)) | Binder
– | no binding | AB000880 (anti-PD1 control) scFv (AF000327) (scFv, also called AB000880_PD1_R04_C10) scFv: MSTSTEQKLISEEDLQVQLVQSGAEVKKPGASVKVSCKASGYTFTTYYMHWVRQAPGQGLEWMGIINPSGGGTLYAQKFQGRVTMTRDTSTSTVYMELSSLRSEDTAVYYCAAGLFIWGQGTTVTVSSASGGGGSGGGGSGGGGSHASDIVMTQSPDSLAVSLGERATINCKASQSLLHSSSNKNYLAWYQQKPGQPPKLLIYWASTRESGVPDRFSGSGSGTDFTLTISSLQAEDVAVYYCQQYYSTPITFGPGTKVDIKGSGLNDIFEAQKIEWHEGKPIPNPLLGLDST
– | no binding | AB000694 (anti-PD1 control) scFv (AF005039) (scFv, V domains shown, scFv with cMyc and V5 tags; also called AB000694_nivo) VH: QVQLVESGGGVVQPGRSLRLDCKASGITFSNSGMHWVRQAPGKGLEWVAVIWYDGSKRYYADSVKGRFTISRDNSKNTLFLQMNSLRAEDTAVYYCATNDDYWGQGTLVTVSS VL: EIVLTQSPATLSLSPGERATLSCRASQSVSSYLAWYQQKPGQAPRLLIYDASNRATGIPARFSGSGSGTDFTLTISSLEPEDFAVYYCQQSSNWPRTFGQGTKVEIK
